From article PMC5999986

Biological target: DosRK182R (Mycobacterium tuberculosis, UniProt P9WMF9 1-217, K182R)
Assay: EMSA; 4, 8, 16 uM protein; 20 mM MgCl2; […]; ITC: 20 mM Tris pH 8.0, 200 mM NaCl, 25 C, […]
Conditions: protein: recombinant; tags: His6 (pET28a); chain copies: 2; label: none (ethidium bromide stain); blunt

B1: 20-bp DosR regulon consensus DNA (EM1/EM2) (dsDNA)
DNA 1: TTGGGGACTAAAGTCCCTAA
DNA 2: TTAGGGACTTTAGTCCCCAA
Question: Does B1 bind?
Answer: Result: binds
